Data on four substances can be found in paper PMC7368380 (Journal of the American Chemical Society, 2018).

Data set [1] concerns the target fluorescein-labeled, wild-type FusA leader peptide (Thermobifida fusca). Kind of data set: fluorescence polarisation.
Data set [2] has as its target T1, carboxypeptidase Y (Saccharomyces cerevisiae, UniProt P00729).
T1 sequence (P00729 112-532): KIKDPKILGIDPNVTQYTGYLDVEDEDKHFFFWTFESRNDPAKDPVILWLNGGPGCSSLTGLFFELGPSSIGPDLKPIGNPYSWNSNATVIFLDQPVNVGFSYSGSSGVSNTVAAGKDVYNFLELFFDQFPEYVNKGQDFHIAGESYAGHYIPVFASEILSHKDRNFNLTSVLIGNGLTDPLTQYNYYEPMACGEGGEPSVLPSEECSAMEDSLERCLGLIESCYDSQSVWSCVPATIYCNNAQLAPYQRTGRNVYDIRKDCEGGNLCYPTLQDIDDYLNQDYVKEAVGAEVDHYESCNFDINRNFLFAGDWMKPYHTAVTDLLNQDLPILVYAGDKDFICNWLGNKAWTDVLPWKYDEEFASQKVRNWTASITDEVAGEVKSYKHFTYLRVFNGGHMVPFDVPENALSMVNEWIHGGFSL
The data set is described as follows: carboxypeptidase Y digestion. Format: in vitro ADME. Conditions: carboxypeptidase Y digestion for 18 h; analysis by MS (Fig. S11).

The nature of data set [3]: MALDI-TOF MS-based hydrogen-deuterium exchange assay. Conditions: H-D exchange, MALDI-TOF MS read-out (Fig. S10). Format: physicochemical.
Data set [4] is described as follows: solubility. Format: physicochemical. The note with it: qualitative statement; prevented NMR.

As for FusE G31V variant (natural protein), the fold reduction of leader peptide binding against wild-type FusE in data set [1] came out at 2 fold. As to FusE-D74A (natural protein), the fold reduction of affinity against wild-type FusE in data set [1] was 8 fold. On the same count and under the same terms, the value for FusE-L78A (natural protein) was 10 fold. For fusilassin, the “outcome of carboxypeptidase Y digestion” value in data set [2] was “vast majority of the fusilassin peptide remained intact”. Moreover, the “time to full deuteration” value in data set [3] is ~ 60 min. In data set [4], the solubility characteristics result is given as “poor”.
